Nine molecules from patent publication US20120087858A1 (AbbVie / Abbott, published 2012) can be followed below.

Experiment [1] addresses T1, Recombinant Human TNF-α/TNFSF1A (human, UniProt P01375 77-233). The experiment can be described thus: cell-based or functional assay.
For experiment [2], the target named is T2, Recombinant Human SOST (human, UniProt Q9BQB4 24-213).
T2 construct: Biacore reagent from R&D Systems; the Wnt-1/luciferase assay used Human Sclerostin (Abbott PR-1261069); also called Sclerostin; Human Sclerostin
T2 sequence (looked up): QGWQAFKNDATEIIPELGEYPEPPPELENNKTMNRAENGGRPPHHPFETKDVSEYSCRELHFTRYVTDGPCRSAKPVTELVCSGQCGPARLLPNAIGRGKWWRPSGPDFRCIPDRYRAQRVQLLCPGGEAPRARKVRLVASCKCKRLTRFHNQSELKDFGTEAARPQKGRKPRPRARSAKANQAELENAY
Briefly: Biacore SPR. How it is done:
(§1) The BIACORE assay (Biacore, Inc, Piscataway, N.J.) determines the affinity of antibodies or DVD-Ig with kinetic measurements of on-rate and off-rate constants. Binding of antibodies or DVD-Ig to a target antigen (for example, a purified recombinant target antigen) is determined by surface plasmon resonance-based measurements with a Biacore® 1000 or 3000 instrument (Biacore® AB, Uppsala, Sweden) using running HBS-EP (10 mM HEPES [pH 7.4], 150 mM NaCl, 3 mM EDTA, and 0.005% surfactant P20) at 25° C. All chemicals are obtained from Biacore® AB (Uppsala, Sweden) or otherwise from a different source as described in the text. For example, approximately 5000 RU of goat anti-mouse IgG, (Fcγ), fragment specific polyclonal antibody (Pierce Biotechnology Inc, Rockford, Ill.) diluted in 10 mM sodium acetate (pH 4.5) is directly immobilized across a CMS research grade biosensor chip using a standard amine coupling kit according to manufacturer's instructions and procedures at 25 μg/ml. Unreacted moieties on the biosensor surface are blocked with ethanolamine. Modified carboxymethyl dextran surface in flowcell 2 and 4 is used as a reaction surface. Unmodified carboxymethyl dextran without goat anti-mouse IgG in flow cell 1 and 3 is used as the reference surface. For kinetic analysis, rate equations derived from the 1:1 Langmuir binding model are fitted simultaneously to association and dissociation phases of all eight injections (using global fit analysis) with the use of Biaevaluation 4.0.1 software. Purified antibodies or DVD-Ig are diluted in HEPES-buffered saline for capture across goat anti-mouse IgG specific reaction surfaces. Antibodies or DVD-Ig to be captured as a ligand (25 μg/ml) are injected over reaction matrices at a flow rate of 5 μl/min. The association and dissociation rate constants, kₒₙ (M⁻¹s⁻) and koff(s⁻¹) are determined under a continuous flow rate of 25 μl/min. Rate constants are derived by making kinetic binding measurements at different antigen concentrations ranging from 10-200 nM. The equilibrium dissociation constant (M) of the reaction between antibodies or DVD-Igs and the target antigen is then calculated from the kinetic rate constants by the following formula: KD=koff/kₒₙ. Binding is recorded as a function of time and kinetic rate constants are calculated.

The target of experiment [3] is T1, Recombinant Human TNF-α/TNFSF1A. The experiment can be described thus: Biacore SPR. As for the experimental part: as §1
(Surface plasmon resonance follows binding to a sensor surface in real time, without labels.)

Experiment [4] has as its target T3, Recombinant Human β-NGF (human, UniProt P01138 122-241). Briefly: cell-based or functional assay.
Experiment [5] deals with T3, Recombinant Human β-NGF. The experiment can be described thus: Biacore SPR. As for the experimental part:
as §1

T3 sequence (P01138 122-241 limits assumed): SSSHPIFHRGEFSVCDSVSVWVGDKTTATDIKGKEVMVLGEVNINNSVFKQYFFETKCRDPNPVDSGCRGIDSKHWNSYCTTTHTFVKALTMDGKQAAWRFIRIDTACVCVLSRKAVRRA
T1 sequence (P01375 77-233 limits assumed): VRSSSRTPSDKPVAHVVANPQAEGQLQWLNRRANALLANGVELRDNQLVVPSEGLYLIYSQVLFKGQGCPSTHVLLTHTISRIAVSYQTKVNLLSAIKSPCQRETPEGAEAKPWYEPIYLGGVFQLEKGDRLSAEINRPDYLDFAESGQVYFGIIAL

B1: DVD1454 (bispecific antibody, human IgG1, kappa)
heavy: not shown
light: DVQMIQSPSSLSASLGDIVTMTCQASQGTSINLNWFQQKPGKAPKLLIYGSSNLEDGVPSRFSGSRYGTDFTLTISSLEDEDLATYFCLQHSYLPYTFGGGTKLEIKRTVAAPSVFIFPPDIVMTQSHKFMSTTVGDRVSITCKASQAVSSAVAWYQQKPGQSPKLLIYWASTRHTGVPDRFTGSGSVTDFTLTIHNLQAEDLALYYCQQHYSTPFTFGSGTKLEIKRTVAAPSVFIFPPSDEQLKSGTASVVCLLNNFYPREAKVQWKVDNALQSGNSQESVTEQDSKDSTYSLSSTLTLSKADYEKHKVYACEVTHQGLSSPVTKSFNRGEC
notes: DVD-Ig; linker set 2; also called DVD1454H; DVD1454L
As usually defined, the Kd is the concentration at which binding is half-saturated. As usually defined, the koff is the rate constant with which the complex falls apart. A word on the kon: it is the rate constant with which the complex forms. As to B1, the “TNFα Neutralization Assay EC50 (L929 cells)” value (“TNFα Neutralization Assay EC50” below) in experiment [1] stood at 0.951 nM. Besides, in experiment [2], the dissociation constant Kd worked out at 0.084 nM, the koff was found to be 0.00086 s⁻¹ and the kon is 1e+07 M⁻¹ s⁻¹. Also, in experiment [3], the dissociation constant (Kd) came out at 0.21 nM, the koff worked out at 4.9e-05 s⁻¹ and the kon amounted to 230000 M⁻¹ s⁻¹.

B2: DVD1460 (bispecific antibody, human IgG1, kappa)
heavy: not shown
light: DIQMTQSPSSLSASVGDRVTITCRASQSISNNLNWYQQKPGKAPKLLIYYTSRFHSGVPSRFSGSGSGTDFTFTISSLQPEDIATYYCQQEHTLPYTFGQGTKLEIKRTVAAPSVFIFPPDIVMTQSHKFMSTTVGDRVSITCKASQAVSSAVAWYQQKPGQSPKLLIYWASTRHTGVPDRFTGSGSVTDFTLTIHNLQAEDLALYYCQQHYSTPFTFGSGTKLEIKRTVAAPSVFIFPPSDEQLKSGTASVVCLLNNFYPREAKVQWKVDNALQSGNSQESVTEQDSKDSTYSLSSTLTLSKADYEKHKVYACEVTHQGLSSPVTKSFNRGEC
notes: DVD-Ig; linker set 2; also called DVD1460H; DVD1460L
On to B2, for which the “NGF Inhibition Assay EC50 (TF-1 cell proliferation)” value (“NGF Inhibition Assay EC50” below) in experiment [4] amounted to 1.7 nM. Further, in experiment [5], the Kd is 0.00085 nM, the koff was 2e-06 s⁻¹ and the kon stood at 2.3e+06 M⁻¹ s⁻¹. In addition, in experiment [3], the Kd was found to be 0.26 nM, the dissociation rate constant (koff) came out at 3.6e-05 s⁻¹ and the kon came to 140000 M⁻¹ s⁻¹.

B3: DVD1475 (bispecific antibody, human IgG1, kappa)
heavy: not shown
light: DIQMTQSPSSLSASVGDRVTITCRASQGIRIDLGWYQQKPGKAPKRLIYAASTLQSGVPSRFSGSGSGTEFIFTISSLQPEDFASYYCLQHKSYPLTFGGGTKVEIKRTVAAPSVFIFPPDVQMIQSPSSLSASLGDIVTMTCQASQGTSINLNWFQQKPGKAPKLLIYGSSNLEDGVPSRFSGSRYGTDFTLTISSLEDEDLATYFCLQHSYLPYTFGGGTKLEIKRTVAAPSVFIFPPSDEQLKSGTASVVCLLNNFYPREAKVQWKVDNALQSGNSQESVTEQDSKDSTYSLSSTLTLSKADYEKHKVYACEVTHQGLSSPVTKSFNRGEC
notes: DVD-Ig; linker set 2; also called DVD1475H; DVD1475L
In the case of B3, the “TNFα Neutralization Assay EC50” value in experiment [1] is 0.002 nM. In experiment [2], the Kd stood at 0.9 nM, the koff worked out at 0.00073 s⁻¹ and the on-rate (kon) stood at 810000 M⁻¹ s⁻¹. Further, in experiment [3], the dissociation constant (Kd) is 0.013 nM, the dissociation rate constant (koff) is 3.6e-05 s⁻¹ and the on-rate (kon) was determined as 2.7e+06 M⁻¹ s⁻¹.

B4: DVD1525 (bispecific antibody, human IgG1, kappa)
heavy: not shown
light: EIVMTQSPATLSVSPGERATLSCRASQSVSSNLAWYQQKPGQAPRLLIHGASIRATGLPARFSGSGSGTEFTLTISSLQSEDFAVYYCQQYNYWWTFGQGTKVEIKRTVAAPDVQMIQSPSSLSASLGDIVTMTCQASQGTSINLNWFQQKPGKAPKLLIYGSSNLEDGVPSRFSGSRYGTDFTLTISSLEDEDLATYFCLQHSYLPYTFGGGTKLEIKRTVAAPSVFIFPPSDEQLKSGTASVVCLLNNFYPREAKVQWKVDNALQSGNSQESVTEQDSKDSTYSLSSTLTLSKADYEKHKVYACEVTHQGLSSPVTKSFNRGEC
notes: DVD-Ig; linker set 3; also called DVD1525H; DVD1525L
Take B4: in experiment [1], the “TNFα Neutralization Assay EC50” value was 0.0029 nM. Moreover, in experiment [2], the Kd came to 9.8 nM, the koff was determined as 0.00089 s⁻¹ and the association rate constant (kon) amounted to 91000 M⁻¹ s⁻¹. Also, in experiment [3], the Kd worked out at 0.015 nM, the off-rate (koff) stood at 3e-05 s⁻¹ and the kon turned out to be 2e+06 M⁻¹ s⁻¹.

B5: AB020 (antibody, V domains shown)
VH: QVQLQESGPGLVKPSETLSLTCTVSGFSLIGYDLNWIRQPPGKGLEWIGIIWGDGTTDYNSAVKSRVTISKDTSKNQFSLKLSSVTAADTAVYYCARGGYWYATSYYFDYWGQGTLVTVSS
VL: DIQMTQSPSSLSASVGDRVTITCRASQSISNNLNWYQQKPGKAPKLLIYYTSRFHSGVPSRFSGSGSGTDFTFTISSLQPEDIATYYCQQEHTLPYTFGQGTKLEIKR
notes: Parent antibody; also called NGF parent antibody
Regarding B5, the “NGF Inhibition Assay EC50” value in experiment [4] was 0.003 nM. For the same molecule, in experiment [5], the equilibrium dissociation constant (Kd) was determined as 0.00673 nM, the dissociation rate constant (koff) stood at 4.08e-06 s⁻¹ and the kon was determined as 606000 M⁻¹ s⁻¹.

B6: DVD1517 (bispecific antibody, human IgG1, kappa)
heavy: not shown
light: DIQMTQSPSSLSASVGDRVTITCRASQGIRIDLGWYQQKPGKAPKRLIYAASTLQSGVPSRFSGSGSGTEFIFTISSLQPEDFASYYCLQHKSYPLTFGGGTKVEIKRTVAAPDVQMIQSPSSLSASLGDIVTMTCQASQGTSINLNWFQQKPGKAPKLLIYGSSNLEDGVPSRFSGSRYGTDFTLTISSLEDEDLATYFCLQHSYLPYTFGGGTKLEIKRTVAAPSVFIFPPSDEQLKSGTASVVCLLNNFYPREAKVQWKVDNALQSGNSQESVTEQDSKDSTYSLSSTLTLSKADYEKHKVYACEVTHQGLSSPVTKSFNRGEC
notes: DVD-Ig; linker set 3; also called DVD1517H; DVD1517L
Consider B6, for which, in experiment [1], the “TNFα Neutralization Assay EC50” value came out at 0.0012 nM. In addition, in experiment [2], the dissociation constant Kd was determined as 5.5 nM, the off-rate constant (koff) amounted to 0.0005 s⁻¹ and the kon amounted to 89000 M⁻¹ s⁻¹. In experiment [3], the Kd is 0.018 nM, the off-rate (koff) worked out at 4.7e-05 s⁻¹ and the kon was 2.6e+06 M⁻¹ s⁻¹.

B7: DVD1483 (bispecific antibody, human IgG1, kappa)
heavy: not shown
light: EIVMTQSPATLSVSPGERATLSCRASQSVSSNLAWYQQKPGQAPRLLIHGASIRATGLPARFSGSGSGTEFTLTISSLQSEDFAVYYCQQYNYWWTFGQGTKVEIKRTVAAPSVFIFPPDVQMIQSPSSLSASLGDIVTMTCQASQGTSINLNWFQQKPGKAPKLLIYGSSNLEDGVPSRFSGSRYGTDFTLTISSLEDEDLATYFCLQHSYLPYTFGGGTKLEIKRTVAAPSVFIFPPSDEQLKSGTASVVCLLNNFYPREAKVQWKVDNALQSGNSQESVTEQDSKDSTYSLSSTLTLSKADYEKHKVYACEVTHQGLSSPVTKSFNRGEC
notes: DVD-Ig; linker set 2; also called DVD1483H; DVD1483L
In the case of B7, the “TNFα Neutralization Assay EC50” value in experiment [1] turned out to be 0.012 nM. Moreover, in experiment [2], the Kd was 0.78 nM, the off-rate (koff) is 0.00083 s⁻¹ and the association rate constant (kon) turned out to be 1.1e+06 M⁻¹ s⁻¹. Besides, in experiment [3], the Kd is 0.012 nM, the koff was found to be 3.3e-05 s⁻¹ and the kon came out at 2.8e+06 M⁻¹ s⁻¹.

B8: DVD1478 (bispecific antibody, human IgG1, kappa)
heavy: not shown
light: DIQMTQSPSSLSASVGDRVTITCRASQSISNNLNWYQQKPGKAPKLLIYYTSRFHSGVPSRFSGSGSGTDFTFTISSLQPEDIATYYCQQEHTLPYTFGQGTKLEIKRTVAAPSVFIFPPDIQMTQSPSSLSASVGDRVTITCRASQGIRIDLGWYQQKPGKAPKRLIYAASTLQSGVPSRFSGSGSGTEFIFTISSLQPEDFASYYCLQHKSYPLTFGGGTKVEIKRTVAAPSVFIFPPSDEQLKSGTASVVCLLNNFYPREAKVQWKVDNALQSGNSQESVTEQDSKDSTYSLSSTLTLSKADYEKHKVYACEVTHQGLSSPVTKSFNRGEC
notes: DVD-Ig; linker set 2; also called DVD1478H; DVD1478L
As for B8, the “TNFα Neutralization Assay EC50” value in experiment [1] was found to be 0.329 nM. Besides, the “NGF Inhibition Assay EC50” value in experiment [4] came to 0.019 nM. Moreover, in experiment [5], the Kd amounted to 0.0025 nM, the koff worked out at 6e-06 s⁻¹ and the kon was found to be 2.4e+06 M⁻¹ s⁻¹. In addition, in experiment [3], the Kd is 0.1 nM, the off-rate (koff) worked out at 1.5e-05 s⁻¹ and the on-rate (kon) was found to be 150000 M⁻¹ s⁻¹.

B9: DVD1495 (bispecific antibody, human IgG1, kappa)
heavy: not shown
light: DIVMTQSHKFMSTTVGDRVSITCKASQAVSSAVAWYQQKPGQSPKLLIYWASTRHTGVPDRFTGSGSVTDFTLTIHNLQAEDLALYYCQQHYSTPFTFGSGTKLEIKRTVAAPDVQMIQSPSSLSASLGDIVTMTCQASQGTSINLNWFQQKPGKAPKLLIYGSSNLEDGVPSRFSGSRYGTDFTLTISSLEDEDLATYFCLQHSYLPYTFGGGTKLEIKRTVAAPSVFIFPPSDEQLKSGTASVVCLLNNFYPREAKVQWKVDNALQSGNSQESVTEQDSKDSTYSLSSTLTLSKADYEKHKVYACEVTHQGLSSPVTKSFNRGEC
notes: DVD-Ig; linker set 3; also called DVD1495H; DVD1495L
For the molecule B9, in experiment [1], the “TNFα Neutralization Assay EC50” value was 0.0038 nM. Further, in experiment [2], the dissociation constant Kd stood at 22 nM, the off-rate (koff) amounted to 0.00095 s⁻¹ and the kon was 44000 M⁻¹ s⁻¹. In experiment [3], the Kd stood at 0.021 nM, the off-rate (koff) worked out at 5.4e-05 s⁻¹ and the on-rate constant (kon) amounted to 2.5e+06 M⁻¹ s⁻¹.
